Laboratory results taken from article PMC2694229.

Tested on: PCBP2
Experiment: competition EMSA

Substance: poliovirus stem-loop IV RNA
- Kd: 15 nM
